{"source": "patent US20220251222A1", "about": "(Johns Hopkins, published 2022)", "binders": {"B1": {"name": "10H2, recombinant monoclonal hIgG1 (anti-IL-8RB) (antibody, V domains shown)", "VH": "EVQLVETGGRLVQPKGSLKLSCAVSGITFKTNAMNWVRQAPGKGLEWVARIRTKSYNYATYYADSVKDRFTISRDDSQSILYLQMNNLKTEDTAMYHCVREGRWGQGTLVTVSA", "VL": "QAVVTQESALTTSPGETVTLTCRSSTGAVTTSNYANWVQEKPDHLFTGLIGGTNNRPPGVPARFSGSLIGDKAALTITGAQIEDEAIYFCALWYSNHLVFGGGTKLTVL", "notes": "also called anti-IL-8RB antibody"}}, "key": {"[1]": {"molecular_target": "T1, IL-6Rα expressed on lentivirally transduced HEK 293T cells (UniProt P08887 20-468, limits assumed)", "T1 construct": "whole, on cells; also called IL-6Rα^+ cells; IL-6Rα^+/IL-8R^- HEK 293T cells", "T1 sequence (looked up)": "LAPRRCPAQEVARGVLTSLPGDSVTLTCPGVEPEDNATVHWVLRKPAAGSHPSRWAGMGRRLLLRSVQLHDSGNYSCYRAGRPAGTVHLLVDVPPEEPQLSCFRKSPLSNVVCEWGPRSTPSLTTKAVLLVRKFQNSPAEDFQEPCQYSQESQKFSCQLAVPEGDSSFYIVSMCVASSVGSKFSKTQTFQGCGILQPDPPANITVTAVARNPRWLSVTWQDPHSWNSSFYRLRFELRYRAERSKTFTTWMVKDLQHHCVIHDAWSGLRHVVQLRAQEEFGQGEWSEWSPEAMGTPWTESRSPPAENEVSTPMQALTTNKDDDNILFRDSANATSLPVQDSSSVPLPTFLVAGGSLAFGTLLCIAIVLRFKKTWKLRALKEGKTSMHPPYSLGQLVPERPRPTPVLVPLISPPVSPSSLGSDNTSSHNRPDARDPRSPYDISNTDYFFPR", "assay": "flow cytometry binding titration on IL-6R+/IL-8R- HEK 293T cells, detected with FITC anti-human IgG1", "procedure": "(§1) HEK 293T cells were cultured in Dulbecco's modified Eagle's medium (DMEM, Mediatech) supplemented with 10% (Hyclone), 2 mM L-glutamine and 100 U/mL penicillin-streptomycin (Gibco). For surface binding assays, IL-6Rα⁺/IL-8R⁻, IL-6Rα⁻/IL-8R⁺, IL-6Rα⁺/IL-8R⁺, and […] HEK 293T cells were trypsinized for detachment, resuspended in PBSA, and then aliquoted into 96-well plates (1×10⁵ cells per well). Cells were incubated with titrations of various monoclonal or bispecific antibodies for 2 hr at 4° C. with rotation. Cells were then washed and incubated with a 1:50 dilution of fluorescein isothiocyanate (FITC)-conjugated anti-human IgG1 antibody (Sigma-Aldrich, Clone 8c/6-39) in PBSA for 15 min at 4° C. After a final wash, cells were resuspended in PBSA and analyzed on a CytoFLEX flow cytometer (Beckman Coulter). Binding isotherms were fitted to a first-order logistic model and KD values were calculated using GraphPad Prism data analysis software. Mean fluorescence intensity (MFI) of unstimulated cells was subtracted. […]\n(§2) To determine whether engineered bispecific binding agents BS1 and BS2 specifically engage target antigens in a physiologically relevant context, antibody binding to IL-6Rα⁺/IL-8R⁻, IL-6Rα⁻/IL-8R⁺, IL-6Rα⁺/IL-8R⁺, and IL-6Rα⁻/IL-8R⁻ lentivirally transduced HEK 293T cells was measured via flow cytometry. […]"}, "[2]": {"molecular_target": "T2, IL-8RB expressed on lentivirally transduced HEK 293T cells (UniProt P25025 1-360, limits assumed)", "T2 construct": "whole, on cells; also called IL-8R^+ cells; IL-6Rα^-/IL-8R^+ HEK 293T cells", "T2 sequence (looked up)": "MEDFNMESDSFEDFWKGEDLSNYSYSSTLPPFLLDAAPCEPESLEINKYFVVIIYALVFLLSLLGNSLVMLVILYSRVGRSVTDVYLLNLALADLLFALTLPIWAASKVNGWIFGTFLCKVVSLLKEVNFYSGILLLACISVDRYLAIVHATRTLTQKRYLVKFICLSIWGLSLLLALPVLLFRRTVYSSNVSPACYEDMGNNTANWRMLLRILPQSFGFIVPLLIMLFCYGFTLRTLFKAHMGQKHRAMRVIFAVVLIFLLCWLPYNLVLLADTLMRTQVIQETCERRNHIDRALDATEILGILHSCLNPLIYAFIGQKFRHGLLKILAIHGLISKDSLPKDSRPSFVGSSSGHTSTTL", "assay": "competition with 400 nM His-tagged IL-8 on IL-6Rα-/IL-8R+ HEK 293T cells, flow cytometry", "procedure": "IL-6Rα⁺/IL-8R⁻ and IL-6Rα⁻/IL-8R⁺ HEK 293T cells were cultured as previously described, and were trypsinized, resuspended in PBSA, and aliquoted into 96-well plates (2×10⁵ cells per well). IL-6Rα⁺/IL-8R⁻ 293T cells were incubated with titrations of various monoclonal or bispecific antibodies in the presence of saturating concentration of biotinylated IL-6 (100 nM) (Acro Biosystem, cat #: IL6-H8218-25UG) for 2 hr at 4° C. with rotation. Cells were then washed and incubated with 1:200 dilution of Alexa Fluor 647-conjugated streptavidin (Fisher Scientific, cat #: S21374) in PBSA for 15 min at 4° C. After a final wash, cells were resuspended in PBSA and analyzed on a CytoFLEX flow cytometer (Beckman Coulter). Curves were fitted to a first-order logistic model and IC₅₀ values were calculated using GraphPad Prism data analysis software. Mean fluorescence intensity (MFI) of unstimulated cells was subtracted. Similarly, IL-6Rα⁻/IL-8R⁺ 293T cells were incubated with titrations of various monoclonal or bispecific antibodies with saturating concentration of His-tagged IL-8 (400 nM) (Sino Biological, cat #: 10098-H08Y-100) for 2 hr at 4° C. with rotation. […] After a final wash, cells were resuspended in PBSA and analyzed on a CytoFLEX flow cytometer (Beckman Coulter). Curves were fitted to a first-order logistic model and IC₅₀ values were calculated using GraphPad Prism data analysis software. […]"}, "[3]": {"molecular_target": "T2, IL-8RB expressed on lentivirally …", "assay": "flow cytometry binding titration on IL-6R-/IL-8R+ HEK 293T cells, detected with FITC anti-human IgG1", "procedure": "as §1, §2"}, "[4]": {"molecular_target": "T3, human IL-6Rα extracellular domain (ECD), residues 89-303 of the mature protein, with C-terminal biotin … (human, UniProt P08887 108-322, biotinylated with BirA ligase on the biotin acceptor peptide)", "T3 construct": "range 89-303; The range 89-303 counts on the mature protein, not on the precursor; Any linkers between the ECD, BAP and His tag are not described; also called IL-6Rα ECD; recombinant IL-6Rα", "T3 sequence": "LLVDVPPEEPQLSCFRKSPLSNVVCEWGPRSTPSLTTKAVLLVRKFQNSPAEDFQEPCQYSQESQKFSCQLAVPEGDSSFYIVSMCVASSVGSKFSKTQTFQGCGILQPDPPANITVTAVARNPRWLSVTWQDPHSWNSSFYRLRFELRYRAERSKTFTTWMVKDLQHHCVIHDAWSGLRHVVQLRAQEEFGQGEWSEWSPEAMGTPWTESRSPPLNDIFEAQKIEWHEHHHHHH", "assay": "equilibrium bio-layer interferometry titration, biotinylated human IL-6Rα ECD immobilized on streptavidin tips", "procedure": "Biotinylated human IL-6Rα ECD was immobilized to streptavidin-coated tips for analysis on an Octet® Red96 BLI instrument (ForteBio). Less than 5 signal units (nm) of receptor was immobilized to minimize mass transfer effects. Tips were exposed to serial dilutions of the anti-IL-6R antibody tocilizumab, the anti-IL-8R antibody 10H2, BS1, or BS2 in a 96-well plate for 300 s and dissociation was measured for 600 s. Surface regeneration for all interactions was conducted using 15 s exposure to 0.1 M glycine pH 3.0. Experiments were carried out in PBSA (phosphate-buffered saline [PBS] pH 7.3 plus 0.1% bovine serum albumin [BSA, Thermo]) at 25° C. Data was visualized and processed using the Octet® Data Analysis software version 7.1 (ForteBio). Equilibrium titration curve fitting and equilibrium dissociation constant (KD) value determination was implemented in GraphPad Prism software using a first-order logistic model. Experiments were reproduced two times with similar results.\nTo confirm functionality of our bispecific agents, antibodies were titrated against recombinant IL-6Rα via BLI. […] Moreover, both tocilizumab-containing engineered bispecific binding agents also bound IL-6Rα (FIG. 5)."}, "[5]": {"molecular_target": "T2, IL-8RB expressed on lentivirally …", "assay": "flow cytometry titration on IL-6Rα+/IL-8R+ HEK 293T cells; IL-6Rα+/IL-8R+ 293T cells (FIG. 7C)", "procedure": "as §1, §2"}}, "data": [{"binder": "B1", "values": [{"measurement": "binding result", "setting": "[1]", "result": "no binding (tested: 1e-6 M)"}, {"measurement": "IC50", "setting": "[2]", "result": 22, "unit": "nM"}, {"measurement": "EC50 (read off the curve)", "setting": "[3]", "result": "~4", "unit": "nM"}, {"measurement": "binding result", "setting": "[4]", "result": "no binding (tested: about 5e-7 M)"}, {"measurement": "Kd", "setting": "[5]", "result": 4.1, "unit": "nM"}]}]}
